The target of the assay is Purified recombinant HuFCRN/B2MG, biotinylated (human) (UniProt P55899). Put plainly: BLI (ForteBio Octet); biotinylated HuFCRN/B2MG on SA biosensors. (Biolayer interferometry detects binding as a change in optical thickness at a sensor tip.)
Sequence of UniProt P55899 (P55899 24-297 limits assumed, chain 1 of 2): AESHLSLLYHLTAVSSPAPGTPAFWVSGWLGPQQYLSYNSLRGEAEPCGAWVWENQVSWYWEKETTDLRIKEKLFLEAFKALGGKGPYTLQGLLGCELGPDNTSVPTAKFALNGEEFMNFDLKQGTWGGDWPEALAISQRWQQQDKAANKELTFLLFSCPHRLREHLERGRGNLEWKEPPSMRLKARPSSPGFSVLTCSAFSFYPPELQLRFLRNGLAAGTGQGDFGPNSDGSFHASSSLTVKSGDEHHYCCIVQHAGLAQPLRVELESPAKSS
Sequence of UniProt P55899 (P61769 21-119 limits assumed, chain 2 of 2, further chain): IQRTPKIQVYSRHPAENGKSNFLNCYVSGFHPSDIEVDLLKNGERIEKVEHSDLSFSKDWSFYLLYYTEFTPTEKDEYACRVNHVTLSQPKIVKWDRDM

With “RITUXAN (Genentech), non-fused anti-CD20Ab (antibody)”, the Kd – broadly, the constant that tells how readily two partners part at equilibrium – is 69.7 nM.

Source of the values: US20130230517A1.
